Assay results: patent CN113150131A (SHANGHAI PUBLIC HEALTH CLINICAL CT, dated 2021)
Read-outs that look alike come from different tables or passages of the source.

What was measured:
2C-121-270aa小肽段 #4 = target: T1, 2C-121-270aa小肽段 #4 (CVA10病毒 (coxsackievirus A10)); assay: ELISA on coated synthetic peptides
T1 peptide: SLATGIIARAIADKY

2C-121-270aa小肽段 #3 = target: T2, 2C-121-270aa小肽段 #3 (CVA10病毒 (coxsackievirus A10)); assay: ELISA on coated synthetic peptides
T2 peptide: PGTGKSLATGIIARA

CVB3病毒2C蛋白 [1] = target: T3, CVB3病毒2C蛋白 (CVB3, UniProt P03313 1101-1429)
T3 construct: domain: 2C蛋白

2C-121-270aa肽段 = target: T4, 2C-121-270aa肽段 (CVA10病毒 (coxsackievirus A10)); assay: western blot on truncated 2C fragments expressed in 293T cells
T4 construct: Expressed in 293T cells from pcDNA6.0 and detected with a Flag antibody, so it carries a Flag tag

CVA10病毒2C蛋白 = target: T5, CVA10病毒2C蛋白 (CVA10病毒 (coxsackievirus A10), UniProt Q65900 1112-1440); assay: western blot on virus-infected RD cells
T5 construct: In ELISA it was purified 2C protein from prokaryotic expression, coated on the plate; In western blot, immunofluorescence and flow cytometry it was the 2C protein made in CVA10-infected RD cells (intracellular); also called CVA10-2C

CVB3病毒2C蛋白 [2] = target: T3, CVB3病毒2C蛋白; remark: listed apart in the source

Binder | binding result (2C-121-270aa小肽段 #4) | binding result (2C-121-270aa小肽段 #3) | binding result (CVB3病毒2C蛋白 [1]) | binding result (2C-121-270aa肽段) | binding result (CVA10病毒2C蛋白) | binding result (CVB3病毒2C蛋白 [2])
M3-8单克隆抗体 (M3-8 mAb) (antibody, V domains shown, also called M3-8细胞上清; 纯化的单克隆抗体(M3-8 mAb)) VH: QVQLQQSGAELVRPGASVKLSCKALGYTFADNEMHWVKQTPVHGLEWIGGIHPGSGGTAYNQKFKGKATLTADKSSSTAYMELSSLTSEDSAVYYCTRDYYWYDEGFDYWGQGTTLTVSS VL: DIVMTQTPLSLPVSLGDQASISCRSSQSLVHSNGNTYLHWYLQKPGQSPELLIYKVSNRFSGVPDRFSGSGSGTDFTLKISRVEAEDLGVYFCSQSTHIPLTFGAGTKLELK | binds | binds | no binding | binds | – | –
M3-8重组抗体 (antibody, V domains shown, also called M3-8 mAb重组抗体) VH: QVQLQQSGAELVRPGASVKLSCKALGYTFADNEMHWVKQTPVHGLEWIGGIHPGSGGTAYNQKFKGKATLTADKSSSTAYMELSSLTSEDSAVYYCTRDYYWYDEGFDYWGQGTTLTVSS VL: DIVMTQTPLSLPVSLGDQASISCRSSQSLVHSNGNTYLHWYLQKPGQSPELLIYKVSNRFSGVPDRFSGSGSGTDFTLKISRVEAEDLGVYFCSQSTHIPLTFGAGTKLELK | – | – | – | – | binds | no binding
